This test has as its target Human γD-crystallin V75D (human).

Human γD-crystallin V75D (human), sequence (P07320 2-174 V76D): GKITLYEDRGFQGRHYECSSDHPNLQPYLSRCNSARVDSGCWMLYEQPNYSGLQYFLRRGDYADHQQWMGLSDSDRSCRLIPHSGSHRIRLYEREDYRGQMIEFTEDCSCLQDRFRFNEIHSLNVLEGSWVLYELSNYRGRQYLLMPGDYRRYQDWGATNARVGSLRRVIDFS

B1: αB-crystallin, wild type (natural protein)
chain: MDIAIHHPWIRRPFFPFHSPSRLFDQFFGEHLLESDLFPTSTSLSPFYLRPPSFLRAPSWFDTGLSEMRLEKDRFSVNLDVKHFSPEELKVKVLGDVIEVHGKHEERQDEHGFISREFHRKYRIPADVDPLTITSSLSSDGVLTVNGPRKQVSGPERTIPITREEKPAVTAAPKK
Consider B1, for which the suppression of aggregation on dilution out of 5 M GdnHCl (from maximum A350), αB in 5-fold molar excess stood at 73%.

The values above are taken from article PMC3360035.
